Experimental data published in a protein production outcome set (Wang et al. 2014).

Experiment: label from the status in PepcDB records
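Note: failed if final PepcDB status was selected cloned or expressed and not failed if soluble or beyond.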

**Q.** Which protein production does the source give for “HDVIFHIRAKGKNQKLLLSAHPSYSRVHITAQAYENPSEPPMFCMLLRKHIEGGFIEKIEQAGLDRIMIFHIKSRNEIGDETVRKLYVEIMGRHSNIILTDAAENVIIDGLKHLSPSMNSYRTVLPGQDYKLPPAQDKISPLEASEDDILRHLSFQEGRLDKQIVDHFSGVSPLFAKEAVHRAGLANKVTLPKALLALFAEVKEHRFIPNITTVNGKEYFYLLELTHLKGEARRFDSLSELLDRFYFGKAERDRVKQQAQDLERFVVNERKKNANKIKKLEKTLEYSENAKEFQLYGELLTANLYMLKKGD” here?
**A.** The protein production was “failed”.

**Q.** Which protein production does the source give for “QYHDHHKDQYQMDAAHVPNKTPLYITDILSLRGKKDSGPARDSIRDSIDRIEFTDFQLHELTGRWLSENMPEGFKSDRFRFLARTITASEEAPVEGSDGEIRIKPNLYILVWEPSFYEELLTRDYFFLFPPEILKQHTLVFQLYSFFRSRMVRRHTDCMLLSELNQKLARNIEWRRFSMDLIRELKRLSDGKGTDDLFVVNLWGYHLTIETMIENDKVMDYQIDIKCDVEEVLRYSRARTTNAGKRNMAPTLPNPLRNEMVTRQQLEALSGIIDGEFEPIQRKTPSPRGNLGRRVKQRKHLVEINADEITITLSKYTSPEALERSITALSAMTGHSYASIKEECSEYIEKLDWLRVGDEPIPYETLSKTVELFNTQNEVKHLTIERLIAGLAVRRKVCRQVFDGHMDEMVFRALDEMAI” here?
**A.** Its protein production is “failed”.

**Q.** Which protein production does the source give for “MFRFADPNFLYLLILLPFLVALYLYSNYHRRQNIRKYGDPALLKGLMPTISKYRPDIKFWLTFAALTLVILMLARPQFGSKMETVKRSGVEAVIALDISNSMLAEDVTPSRLDKSKKLISRLVDTFNNDKVGLIVFAGDAFTQLPITSDYVSAKMFLETINPSLITTQGTDIGAAIRLAMKSFTPQEGVGRAIIVITDGENHEGGAVEAAQEAAEKGMQVFVLGVGSPDGSPIPAEDGSNNFRRDKDGNVIVTRLNEQMCQEIAKAGNGMYIRVDNTNSAEKVLNNEIAKLSKADVESQVYTEFDEQFQALAWLVLILLVVEMLILERKNPLFKNVRLFK” here?
**A.** The protein production was “failed”.

**Q.** For “MRYSPRKQCYFALFFFAFVALCVGVIELLHQNQQDLQQERVQVEAKEQLSILRSNLEAVLMADIYKASTLATLITLLPNSEEEELSIAADRILNKSKHITVIGIAENDVISHIFPTQGNERVLGLDYRKVPAQWVQVQKAKDIQEIFIAGPVSLVQGGRGLIVRVPVFRDPPINKEYWGVISAVVDFDGLMRETGVFDFSYHYPLTIRGYDSGGEYGDMFFGDPNQTGKLYAKEHVHFPYGGWSMAAYAGGQLEQQISWFELNIVRIIGYPILIALSIALIVIYRLYIIADDRALHDELTHLPNRRYFMQSYKQQFEIAKRYKKRYSFALINIDLDRFKHINDTFGHDAGDKVLIATAERIKSSLRRSDMVARMGGDEFLVVVHNLGMEEHVQKLLQKLRLALCSTPVIYDEELIYLRVSIGYAIFDPQMTSPEQMMKIADERMYQQKHGGLEHHHHHH”, which protein production is on record?
**A.** The protein production was “not failed”.

**Q.** With “MNTRLNEPDLPGDIDIKDLDPLVLQDLKVLSKDNADAVAKHMIMAATWLADDPQLALRHARAAKDRAGRVSVVRETNGIAAYHAGEWKEALSELRAARRMSGGPGLIAVMADCERGLGRPEKAIELAREEDLSSLDQDNLIELAIVVAGARHDLGQHDSAIVELQKVNPSLKSTGFTHSRLSYAYADALVLAGRGDEAREWFQHAATLDEDGYLDAEERIEQLDNGNN” as the sequence, how does the protein production read?
**A.** Its protein production is “failed”.

**Q.** Which protein production does the source give for “PQKKVIVLVHGLASSPEAWIALTNDIMGDNILREHYQVWQVFYSTNMPILESRFQIYALLKQAFDSLNPNDPADHNAVLIGHSMGGIISRLLVSQADISQKAFSLVSPYQQAQLKKQPMVYQRLKIQPIPNFDRAIFMSAPHHGTDFADLWFTRAARKIIKLPGAFLGAITDTVTNENIDAKDLLLRIDQGLIQNGPSDLSYKSKFIELTKNINPPSGFVFHSIIGNNTKSDDPEKITDGIVPYKSAHLEGSASEKIIQGGHSIQETPQAVLELRRILRLHLKEHQ” here?
**A.** Its protein production is “failed”.

**Q.** For “MHPTIARMQEVVAKGDESLIHALLAEDVRFMPPTYYKTWTGRDPVAAVLGHVGQVFSEFRYRRIMGEGKDWALEFQCKVGELDAVGVDLITLNEGGLIQDFEVVMRPYKTVGALRDAMNARVMTDARFLKYREALS”, which protein production is on record?
**A.** The protein production was “not failed”.

**Q.** For “MLSGKKTILVFSMLFATFSSHADNFPKLNQALPSGIDARAIAPVFDFDTDGCLPSAGVSRSGVQNGGLKPSGNITGGCRWSNFLDSSNTLHRYACVNSAGSRYCGSFYALYFLKDQILNGVNSGHRHDWEHVAIWTKNGVVTHGSYSAHGKLTTKEASSIDKQDGHLKFSYHKDGPLTHAFRFSKTNEQAENPYGKFVTPDLISWYLMFGDGINNQELRNLLNAFDYGSASIPLKDGNFLTNLNNGRPAGYPEFTDASITVSK”, which protein production is on record?
**A.** Its protein production is “failed”.
